Assay: soluble on expression in E. coli; label from the status in PepcDB or PDB records

Sequence	soluble on expression in E. coli
MPLTPADVHNVAFSKPPIGKRGYNEDEVDAFLDLVEQELSRLIEENADLRQRVGELDKELADAKKAPRSGSAAPTPAPKAEPARVVEQPKAPAPAPAPAAAAAAAPAQGADAHMQAAKVLGLAQEMADRLTSDAKTESEQLLGNARTNSEQLVSDARTRSETMIADARQKSEALITDAQTRSETQLRQAKEKADALQADAEKKHTEIMATINQQRSVLEGRIEQLKTFEREYRVRLKSYLESQLEELEQRGSAVPVDGGQDSFAQGGSQSNYSQSYAKGNS	not soluble
MPLTSVTPLCITWNGEKLVAAGYDSTILTAVPKDIVKVKVNDRPIVFDVAPIIGEGRTLVPLRHIFEALGAEVKWDASTRTVTGIKGSDKIILKIDSKEALVNGETKELDVPATIVNGRTLVPVRSISESLGAEVSWDDNSKTVIIKTNF	not soluble
MPMFNTLTSLFKQLLEGQDLAQHSATPELAIACLLSEVAGADQQISAPEQQAKLALLQHLLQCTAEQASDLLMRAEQEVKQSASLYDFTSQLRSLSQTQRFELIKAMWEVANADGTIDPLEDAVIRKAAELLYVDHSQFIRAKLMAADKHQSPE	not soluble
MPNNLELKQLIASAQVLGLQNDSSLPAFDRQILRMADEEKRALSPTEIQHICQTSKVDAQLIEQLQSQANHLVQQAREFLVKEQPHLVQSGGALFPSERAEACWRDCWQFFRVIVYAIACKRPLFTDAEGMGALRALYAHVGVPIEGLNIALKQLKVLSRQEISGAIEAPLLSESFGHLLEELNKTGVKS	not soluble
MPNPRRIVFGDVHGHFDALTALFEAIAPNERDGVYFVGDLIDRGPESAKVVDFVMENKYHCLLGNHEQMMLDAVGGFNFSPQLLHAWIYSGGKSTLESYEHQIPQSHVDWMRNLPLYLDLGDVWLVHAGVDPRLPIEEQGEAQFCWIRDEFHRYPYPYFANKLIITGHTITFTFANVEPGKLVSGPGWLDIDTGAYHPKSGWLTALELNNQEVYQAHIFTNEVRRLPLEDAVVPLPPQNLHRLEHHHHHH	not soluble
MPQNYPWLNTEQPLSIKQLNGRVVILDFWTYCCINCLHVLPDLKYLEQKYKDSLTVIGVHSAKFDNEQETENIRQAILRYDIEHPVLVDKDFRVWQEYAVRAWPTLMVIDPKGYVIGYVSGEGNRDKLDQLITQVIQEHQGAINFQQLSLTLEKQRQPLITPLAFPGKVLATPSGLFVADSGHHRIVVSDFNGEILHLIGNGKSGLTDGNFQEAQFSAPQGMAFDMENQILYLADTENHALRRVDINQQTVETIAGTGEQSRNIQPHGGVGLETALNSPWDLVNIENSLYIAMAGVHQIWQMDLASGVIKTYAGTGVEACLDASLTESAFAQPSGITNNEQELYIADSEISSIRGVGLVEPQEVRTVCGSGGLFGFGDVDGQGEDVRLQHCLGVEYFQNYLWVADTYNHKIKSVSPHTGNCQTVLGDGLAGLQNGQGKNTRFFEPSGLSAIDSYLYISDTNNHVIRRVDLRTLEVTTMQFNGLCAPDVCIPNNFLEHHHHHH	soluble
MPQPEQLPGPNADIWNWQLQGLCRGMDSSMFFHPDGERGRARTQREQRAKEMCRRCPVIEACRSHALEVGEPYGVWGGLSESERDLLLKGTMGRTRGIRRTA	not soluble
MPRAVAERGDVVPVLAEVFRSHGFDGASLAVITEHTGLGKGSLYNFFPRGKDEMAEAVLDEVDAWFQTAVYLPLRGSEPAAARLERMFDEVETYFRSGRRICLFGAFALGLERDRFADRVRAYFTDWVDSLAGALADAGHGRPSRPLAEEVVAGIQGALVLARALDDPDSFTRILTRLRRSVGDPTTSRA	soluble
MPRFMRTQTKLRTIIRSNLMLNSSSMEISRSLTSWQKGARSIIHRALQYLEGNLTVIEHFPDQTQTTHEQFGQDKPDAIHAVIEIKHPDFYSRVLKGGSIAAAEAYMEGWWESPNLTALMQLMAANLGTLDKLESQSSPVTQWLNRFTHWLKRNTIDQAKDNIHQHYDLGNELYQLFLDEEMLYSSALFTQPELSLEQAQQAKMQRLCEQLQLKPTDHVLEIGTGWGAMAIYMAQHYGCKVTTTTISEEQYAYAQQKITALGLNNQITLLKQDYRLLSGQYDKLVSIEMIEAVGKAYLPTFLSQCYALLKPRGKMAIQAITIADQRYESYSNNVDFIQKYIFPGGFLPSISVLTELATKRTGLVLRNLHDIGIDYALTLQHWRDRFEQQLPKVRDLGYDERFIRMWRYYFCYCEGGFLARSISTVHMTFERD	not soluble
MPSASASRKSQEKPREIMDAAEDYAKERYGISSMIQSHEKPDRVLVRVRDLTIQKADEVVWVRARVHTSRAKGKQCFLVLRQQQFNVQALVAVGDHASKQMVKFAANINKESIVDVEGVVRKVNQKIGSCTQQDVELHVQKIYVISLAEPRLPLQLDDAVRPEAEGEEEGRATVNQDTRLDNRVIDLRTSTSQAVFRLQSGICHLFRETLINKGFVEIQTPKIISAASEGGANVFTVSYFKNNAYLAQSPQLYKQMCICADFEKVFSIGPVFRAEDSNTHRHLTEFVGLDIEMAFNYHYHEVMEEIADTMVQIFKGLQERFQTEIQTVNKQFPCEPFKFLEPTLRLEYCEALAMLREAGVEMGDEDDLSTPNEKLLGHLVKEKYDTDFYILDKYPLAVRPFYTMPDPRNPKQSNSYDMFMRGEEILSGAQRIHDPQLLTERALHHGIDLEKIKAYIDSFRFGAPPHAGGGIGLERVTMLFLGLHNVRQTSMFPRDPKRLTP	soluble
MPSEKAFIQHLRTASFQGLHLHHFHQKVGKCGVVGFDIHIFPTLLPAAQGILDIQLGLFRIDCAPLAVYRRTQVDFIHTVIDGIASDQAFSEVVQILRRLNLGHFTDTHLIAQARRFIADFGNIRPMRRGKAETFCRCFRFDGIDRIHGDFRQCGHINRLAAGKNCRNGKRDKVFFHAPIIIKFALRKQIVRQEK	not soluble
MPSGVCEPKERSPCMNKIDKLDKELEKAREKAAEWQAKIRELEKQKQEEENSQIVQAVRSLKLTPAQLMAFLNDPKNSLTASGHTDPKPEAPEKEDTAHEEN	not soluble
MPSIRLADLAQQLDAELHGDGDIVITGVASMQSAQTGHITFMVNPKYREHLGLCQASAVVMTQDDLPFAKSAALVVKNPYLTYARMAQILDTTPQPAQNIAPSAVIDATAKLGNNVSIGANAVIESGVELGDNVIIGAGCFVGKNSKIGAGSRLWANVTIYHEIQIGQNCLIQSGTVVGADGFGYANDRGNWVKIPQIGRVIIGDRVEIGACTTIDRGALDDTIIGNGVIIDNQCQIAHNVVIGDNTAVAGGVIMAGSLKIGRYCMIGGASVINGHMEICDKVTVTGMGMVMRPITEPGVYSSGIPLQPNKVWRKTAALVMNIDDMSKRLKSLERKVNQQD	soluble
MPSSSPSMDESRRSAVPPKEPAGRICTVCSDRANGYNFGVLTCESCKAFFRRNASKHKEIKCPFSDSCQITSASRKFCQACRLNKCFAVGMNSEWLNDLKPKSSIVSGKFKRKKPDMKNNLKVEVDDTEEDLENDDEEQISVPKALLEKLINKANEKSKDRCTCKCQCGFYPITQRLTAYEPKDTTAVNSPQDISFSHHLHHSDSFYSSSTSTLSPMSVISCAPSSHDSSGYNTSQLVTQSPTNYTVSPASIPSSITELSPQMPSQYPPMLSPFQFGVMAQMAAPANFLNFPPMPERTWTPIQAVSTVPVTETLPPNLLEQIHSKIDKYIGVLNEDEITLLEELHVQNEPLNAPLIQWHNPKSIDGVFRIIEEALRRIVNMACQLSLFRELHVDDRKNLLKSGFGELLIVRGLMAYDKSDNSWNHSFGVRGKMEVKVEVLKNPKLEEHYKAHMNLLSTFGEDVRNNEHLMLIFNAAVIFHPHVSNLRDSKRVHSTQAKYFQMLLKLLTFEYGKSRADIAYSNLLNQVVELHRVNRTLLRVFYGLDIAQLDPLIRELCSFE	not soluble
MPTITLRLELHNPTKVKQDMYERMTEVNTAFANWLLNHPELNQATSKIFKEFSPQRFPSAVVNQTIREVKSQKKNQKTKKFRTFWCCFNNQNVKVEKKGAFYTVSFPTLEKRIGVPVVTRPYQEAWLNRLLDGTAKQGAAKLYKKRTKWYLAIAITFEVKPRHETKVMGVDLGLRYIAVASVGTKSLFFKGSQCAFIRRRYAALRRTLGKAKKLQMIRKIGRKESRWMKDQNHKISRQIVNVALANGVGVIRMEALTGIRKRAKSAKEAGRSLHSWAFHQLQTMIAYKAEMAGIRVEWVKPTYTSQTCKCGHREKGNRNGIHFQCKQCGYTLHADLNGAINIAKAISGFVAEPSALVTGAPPIGVHRNPMGRGDDTPLNLGVVRTRNG	not soluble
MPVAATNSETAMQQVLDNLGSLPSATGAAELDLIFLRGIMESPIVRSLAKAHERLEETKLEAVRDNNLELVQEILRDLAQLAEQSSTAAELAHILQEPHFQSLLETHDSVASKTYETPPPSPGLDPTFSNQPVPPDAVRMVGIRKTAGEHLGVTFRVEGGELVIARILHGGMVAQQGLLHVGDIIKEVNGQPVGSDPRALQELLRNASGSVILKILPSYQEPHLPRQVFVKCHFDYDPARDSLIPCKEAGLRFNAGDLLQIVNQDDANWWQACHVEGGSAGLIPSQLLEEKRKAFVKRDLELTPNSGTLCGSLSGKKKKRMMYLTTKNAEFDRHELLIYEEVARMPPFRRKTLVLIGAQGVGRRSLKNKLIMWDPDRYGTTVPYTSRRPKDSEREGQGYSFVSRGEMEADVRAGRYLEHGEYEGNLYGTRIDSIRGVVAAGKVCVLDVNPQAVKVLRTAEFVPYVVFIEAPDFETLRAMNRAALESGISTKQLTEADLRRTVEESSRIQRGYGHYFDLCLVNSNLERTFRELQTAMEKLRTEPQWVPVSWVY	soluble
MPYLNCDTITGDFHFQMIRFARAMEVGDKLTMKGKIMNPANMSYLHLYQGFNSVYEKSPLSLHIRVQYLRNSIIYNSWFGSWGGEQFSQQPFLSGNYYSISVLKGPTYYSIYMGNLLITKYAFRNPANWQIGNLLGYGDWTVTSVSMTCVRPGVPTTPDPKATTTPTPTTTKAQNIIAEDPNGGQLGGGELVVTNPGSVGSGSGNSGNSSNNNNSSGNSNYGSNNSGSGNGNSNSGNGNSGNGNGNNAGNSGNGNGNSNGNNGNGSNGNGNGNNGNGNNGNNGNGHPQYPYPVPPHGYYPPGYPYPPGYPYPPPGAFYYPPGGIPQNGMNGQNGNGQPNIIVINSGGNKKRNRGGNLRPQFDVDLDGDEDEEC	not soluble
MQAQNMTEASTVHVEHDPVRQRFNVDTDGHRAELAYRREGEIMTITHTQVPDAVSGRGIAAALVEDALAFARQHGLKVVPACRYADAYVRRHPRYQDLLAMAGDPLEHHHHHH	not soluble
MQAWFMDDSNEDQRLPHHRNPKELVSLDYLAELGVLYWKLNPENYENDSELSKIREDRGYDYMDLLDLCPEKVSNYEEKLKNFFTEHIHKDEEIRYCLAGSGYFDVRDKDDRWIRIWMQPGDLIVLPAGIYHRFTLDASNYIKLMRLFVGEPVWTPYNRPQEEHPVRKKYIHGLTYKFGETVKAH	soluble
MQDIWRLPATELADLVRSRRVSAREVAEAALHRLDAVNPAINAVVDHKADDALTQADAVDAAFAKGETPGVLAGVPVTVKVNVDQQGFATTNGVTLQRDWIAKTNNPVVDNLRKAGAVIIGRTNTPAFSYRWFTSNKLHGETLNPRDPSITPGGSSGGAAAAVAAGIGAIAHGTDIAGSVRYPAYACGVHGLRPTIGRVAAFNASSPERPICPQISAVSGPLARTIADVRLGLQALAQPDARDPWWVPAPLDGPPRDKRAALCIAPDDLAVVRAVRDALKDAARRLEAAGWVVDEIASTPPLREAAELQAQFWLGDGYQAMLDAAEREGDEGALACLHGNRDKAIGDLASYSKLLTRRATLTRDWQTFFETYAVLLTPVCGELPFPQRLDLKDEESFKRVWAAQMPQVGLPFMGLPALTVSTGMVGRVPVGVQVVSGRYREDLCLLAGEAIEA	not soluble

— the DeepSol protein solubility set
